Literature values in patent US20050181485A1, “Cellulose digesting enzyme gene and utilization of the gene” (priority 2002, published 2005).
Where two headings read alike, the source gives them in different places.

Conditions: known cellobiose dehydrogenases

B1: Phanerochaete chrysosporium: known cellobiose dehydrogenase reported by Henriksson et al. (protein, UniProt Q01738 19-773, looked up)
Cellobiose dehydrogenase: QSASQFTDPTTGFQFTGITDPVHDVTYGFVFPPLATSGAQSTEFIGEVVAPIASKWIGIALGGAMNNDLLLVAWANGNQIVSSTRWATGYVQPTAYTGTATLTTLPETTINSTHWKWVFRCQGCTEWNNGGGIDVTSQGVLAWAFSNVAVDDPSDPQSTFSEHTDFGFFGIDYSTAHSANYQNYLNGDSGNPTTTSTKPTSTSSSVTTGPTVSATPYDYIIVGAGPGGIIAADRLSEAGKKVLLLERGGPSTKQTGGTYVAPWATSSGLTKFDIPGLFESLFTDSNPFWWCKDITVFAGCLVGGGTSVNGALYWYPNDGDFSSSVGWPSSWTNHAPYTSKLSSRLPSTDHPSTDGQRYLEQSFNVVSQLLKGQGYNQATINDNPNYKDHVFGYSAFDFLNGKRAGPVATYLQTALARPNFTFKTNVMVSNVVRNGSQILGVQTNDPTLGPNGFIPVTPKGRVILSAGAFGTSRILFQSGIGPTDMIQTVQSNPTAAAALPPQNQWINLPVGMNAQDNPSINLVFTHPSIDAYENWADVWSNPRPADAAQYLANQSGVFAGASPKLNFWRAYSGSDGFTRYAQGTVRPGAASVNSSLPYNASQIFTITVYLSTGIQSRGRIGIDAALRGTVLTPPWLVNPVDKTVLLQALHDVVSNIGSIPGLTMITPDVTQTLEEYVDAYDPATMNSNHWVSSTTIGSSPQSAVVDSNVKVFGTNNLFIVDAGIIPHLPTGNPQGTLMSAAEQAAAKILALAGGP
  Isoelectric point: 4.2
  Optimal pH: 5.0
  Optimal temperature: 50 °C
Listed as cellobiose dehydrogenase derived from Phanerochaete chrysosporium
  Isoelectric point: about 4.2
